The values below come from patent US20060067886A1, “Gastrin receptor-avid peptide conjugates” (priority 1997, published 2006).

Data set [1] can be described thus: in vivo. As to conditions: SCID, mouse, in vivo, iv, 4 uCi, total radioactivity, Avg % ID, Muscle. The method, then:
In vivo pharmacokinetic studies in human tumor bearing SCID mice. […] The xenograft models were produced by bilateral flank inoculation of 5×10^6 cells (PC-3 or MDA-MB-231 cells) per site. Four to six weeks post inoculation, palpable tumors were observed. At this point, the mice were injected with 4 μCi of the complex in […] of isotonic saline via the tail vein. The mice were euthanized and tissues and organs were excised from the animals at selected times post-injection (p.i.), including 15 minutes, 30 minutes, 1 hour, 4 hours, 24 hours, 48 hours, and 72 hours p.i. Subsequently, the tissues and organs were weighed and counted in a NaI well counter and the percent injected dose (% ID) and % ID/g of each organ or tissue calculated.
The mice were injected with 4 μCi of the complex in 100 μL of isotonic saline via the tail vein. The mice were euthanized by cervical dislocation. Tissues and organs were excised from the animals following at 1 hour, 4 hour, and 24 hours post-injection (p.i.). Subsequently, the tissues and organs were weighed and counted in a NaI well counter and the percent injected dose (% ID) and % ID/g of each organ or tissue calculated.

In data set [2] the test system is PC-3 human tumor xenografts. As to the kind of experiment: Single dose radiotherapy in PC-3 tumor bearing SCID mice. In kind it is in vivo. The settings on record: up to 20 mCi/kg single dose. The text has this: In vivo pre-clinical evaluation of single dose radiotherapy in human tumor bearing SCID mice. […] The xenograft model was produced by bilateral flank inoculation of 5×10^6 PC-3 cells per site. […] Baseline weights, hematology profiles, and tumor measurements were obtained immediately prior to therapy administration. Four groups of animals were utilized; a saline placebo, a 5 mCi/kg single dose, a 10 mCi/kg single dose, and a 20 mCi/kg single dose. Tumor measurements and weights were obtained twice weekly throughout the 14 weeks post injection.

Data set [3] has as its system Swiss 3T3 cells. As to the kind of experiment: Internalization and efflux, Swiss 3T3 cells. It is filed as cell-based, mouse. As to conditions: sixty minutes / one hour post-washing. The method, then:
After establishment of equilibrium after a forty minute incubation, the media surrounding the cells was removed and the cells were washed with fresh media containing no radioactivity. […] The cells were then incubated in a 0.2M acetic acid solution (pH 2.5) which caused the surface proteins (incl., GRP receptors) to denature and release all surface bound radioactive materials. After removing this buffer and washing, the cells were counted again.
To determine intracellular retention, a similar method was employed. […] FIG. 12 is a graph of results of efflux experiments using Swiss 3T3 cells with ^125I-Lys^3-BBN.

Data set [4] concerns the target T1, GRP receptors on Swiss 3T3 cells (Mus musculus, UniProt P21729).
T1 construct: endogenous in cells; host or cells: Swiss 3T3 mouse fibroblasts (whole cells)
The data set is described as follows: Competitive cell binding vs 125I-Tyr4-BBN, Swiss 3T3 cells. The method, then: The binding affinities of the synthetic BBN derivatives were assessed for GRP receptors on Swiss 3T3 cells and, in some cases, on a variety of human cancer cell lines, that express GRP receptors. […] The cell binding assay methods used to measure the IC50's is standard and used techniques previously reported [Jensen et al., 1993; Cai et al., 1994; Cai et al., 1992]. The methods used for determining IC50's for all GRP receptor binding compounds on all cell lines was similar. The specific method used to measure IC50's on Swiss 3T3 cells is briefly described as follows:
(§1) Swiss 3T3 mouse fibroblasts are grown to confluence in 48 well microtiter plates. […] The growth media was removed, the cells were washed twice with incubation media, and incubation media was returned to the cells. ^125I-Tyr4-BBN (0.01 uCi) was added to each well in the presence of increasing concentrations of the appropriate competitive peptide. Typical concentrations of displacing peptide ranged from 10-12 to 10-5 moles of displacing ligand per well. The cells were incubated at 37° C. for forty minutes in a 95% […]/5% CO2 humidified environment. At forty minutes post initiation of the incubation, the medium was discarded, and the cells were washed twice with cold incubation media. The cells were harvested from the wells following incubation in a trypsin/EDTA solution for five minutes at 37° C. Subsequently, the radioactivity, per well, was determined and the maximum % total uptake of the radiolabeled peptide was determined and normalized to 100%.
The binding affinities of the synthetic BBN derivatives were assessed for GRP receptors on Swiss 3T3 cells, PC-3 cells and CF PAC-1 cells. The IC50's of each of derivative were determined relative to (i.e., in competition with) ^125I-Tyr^4-BBN. The cell binding assay methods used to measure the IC50's is standard and was used by techniques previously reported [Jensen et al., 1993; Cai et al., 1992; Cai et al., 1994]. The methods used for determining IC50's with all BBN analogue binding to GRP receptors present on all three cell lines were similar. The specific method used to measure IC50's on Swiss 3T3 cells, is briefly described as follows:
as §1, with “microliter” for “microtiter”, “^125I-Tyr^4-BBN” for “^125I-Tyr4-BBN”, “μCi)” for “uCi)”, “10^−12” for “10-12”, “10^−5” for “10-5”, “100%. A similar procedure was used in performing cell binding assays with both the PC-3 and CFa-PAC-1 human cancer cell lines.” for “100%.”

Structures are written as SMILES.

T1 sequence (P21729 whole entry): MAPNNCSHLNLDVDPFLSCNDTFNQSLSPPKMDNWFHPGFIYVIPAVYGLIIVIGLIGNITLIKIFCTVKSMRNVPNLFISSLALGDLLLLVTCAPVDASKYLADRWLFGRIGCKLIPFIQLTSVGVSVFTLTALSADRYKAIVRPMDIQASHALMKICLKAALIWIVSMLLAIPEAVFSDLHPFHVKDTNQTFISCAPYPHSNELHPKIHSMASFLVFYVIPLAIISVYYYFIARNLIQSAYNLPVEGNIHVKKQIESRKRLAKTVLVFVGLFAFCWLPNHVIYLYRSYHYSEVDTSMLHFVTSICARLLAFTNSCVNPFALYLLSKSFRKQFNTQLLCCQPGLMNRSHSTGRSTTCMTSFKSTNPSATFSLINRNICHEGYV

As for `CSCC[C@H](NC(=O)[C@H](CC(C)C)NC(=O)[C@H](Cc1cnc[nH]1)NC(=O)CNC(=O)[C@@H](NC(=O)[C@H](C)NC(=O)[C@H](Cc1c[nH]c2ccccc12)NC(=O)[C@H](CCC(N)=O)NC(=O)CCCCCCCNC(=O)CN1CCN(CC(=O)O)CCN(CC(=O)O)CCN(CC(=O)O)CC1)C(C)C)C(N)=O` [90Y-DOTA-8-Aoc-BBN[7-14]NH2, metal not drawn], the tissue uptake dose at 4 h in data set [1] (4 hrs) amounted to 0.01 ± 0.01 %ID. Also, the tissue uptake dose at 48 h in data set [1] (48 hrs) turned out to be 0.01 ± 0.02 %ID. For the same molecule, in data set [1] (72 hrs), the tissue uptake dose at 72 h was determined as 0.01 ± 0.02 %ID. Moreover, the “tolerability of radiation doses” value in data set [2] was “well tolerated”.
One may read the IC50 as the concentration that gives 50% inhibition. A low value points to greater potency in that assay. As to `CC(C)C[C@H](NC(=O)[C@H](Cc1c[nH]cn1)NC(=O)CNC(=O)[C@@H](NC(=O)[C@H](C)NC(=O)[C@H](Cc1c[nH]c2ccccc12)NC(=O)[C@H](CCC(N)=O)NC(=O)CCCCNC(=O)COC1CSCCCSCCCSCCCSC1)C(C)C)C(N)=O` [105Rh-BBN-61], the “activity remaining associated with the cells” value in data set [3] is given as “less than 10%”. This molecule yielded an IC50 in data set [4] of 4.1 nM.
